# Measurements published in patent publication US20240301069A1 (GUANGDONG FAPON BIOPHARMA, published 2024).
# Substitutions are numbered along the chain they refer to.
# T1: human PD-L2 protein (Acrobiosystem), hPD-L2 hFc (human, UniProt Q9BQ51 20-219, limits assumed)
# T1 construct: Bought; also called B7-DC; not shown: human Fc
# T1 sequence (looked up): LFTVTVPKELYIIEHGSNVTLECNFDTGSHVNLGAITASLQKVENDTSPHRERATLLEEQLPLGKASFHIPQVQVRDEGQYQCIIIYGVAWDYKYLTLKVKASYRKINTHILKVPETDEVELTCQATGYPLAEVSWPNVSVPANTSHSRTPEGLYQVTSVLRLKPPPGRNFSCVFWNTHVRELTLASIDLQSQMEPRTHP
# T2: human ICOSLG protein (Acrobiosystem), hICOSLGhFc (human, UniProt O75144 19-258, limits assumed)
# T2 construct: Bought; also called B7-H2; not shown: human Fc
# T2 sequence (looked up): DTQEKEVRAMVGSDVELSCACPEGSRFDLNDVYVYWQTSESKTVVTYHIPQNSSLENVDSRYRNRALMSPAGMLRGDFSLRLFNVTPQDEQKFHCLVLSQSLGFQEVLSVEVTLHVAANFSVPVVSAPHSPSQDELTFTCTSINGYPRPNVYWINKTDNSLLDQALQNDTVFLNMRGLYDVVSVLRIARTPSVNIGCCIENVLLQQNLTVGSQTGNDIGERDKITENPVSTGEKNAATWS
# T3: human CD86 protein (Acrobiosystem), hCD86 hFc (human, UniProt P42081 26-247, limits assumed)
# T3 construct: Bought; also called B7-2; not shown: human Fc
# T3 sequence (looked up): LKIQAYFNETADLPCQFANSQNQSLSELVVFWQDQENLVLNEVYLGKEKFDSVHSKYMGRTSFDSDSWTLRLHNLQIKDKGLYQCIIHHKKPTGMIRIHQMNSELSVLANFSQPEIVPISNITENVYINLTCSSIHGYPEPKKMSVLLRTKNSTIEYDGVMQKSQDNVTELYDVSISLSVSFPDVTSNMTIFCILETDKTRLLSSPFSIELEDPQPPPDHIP
# T4: human B7-H3 protein (Acrobiosystem), hB7-H3 hFc (human, UniProt Q5ZPR3-2 29-245, limits assumed)
# T4 construct: Bought; not shown: human Fc
# T4 sequence (looked up): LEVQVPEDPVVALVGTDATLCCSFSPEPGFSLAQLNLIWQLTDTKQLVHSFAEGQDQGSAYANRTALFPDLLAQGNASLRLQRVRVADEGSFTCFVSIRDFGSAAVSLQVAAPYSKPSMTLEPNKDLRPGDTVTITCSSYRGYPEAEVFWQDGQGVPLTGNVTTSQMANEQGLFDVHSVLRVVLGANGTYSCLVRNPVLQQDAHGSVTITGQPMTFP
# B1: F016-193 (antibody, V domains shown)
# VH: EVQLQQSGPELVKPGASVKMSCKASGYTFTSYVMHWVKQKPGQGLEWIGYINPHNDGNKYNEKFKGKATLTSDKSSSSAYMELSSLTSEDSAVYYCAKQTMDYWGQGTSVTVSS
# VL: DIVLTQSPASLAVSLGQRATLSCRASESVEFYGTTLMQWFQQKPGQPPKLLIYAASNVESGVPARFSGSGSGTDFSLNIHPVEEDDIAMYFCQQSRKVPYTFGGGTKLEIKR
# notes: Mouse hybridoma monoclonal antibody; also called anti-human PD-L1 antibody F016-193
# B2: F016-568 (antibody, V domains shown)
# VH: QLQESGPSLVKPSQTLSLTCSVTGDSITSDYWNWIRKFPGNKLEYMGYISYTGSTYYNPSLKSRISITRDTSKNQYYLQLNSVTTEDTATYYCAKQGGWLNAMDYWGQGTSVTVSS
# VL: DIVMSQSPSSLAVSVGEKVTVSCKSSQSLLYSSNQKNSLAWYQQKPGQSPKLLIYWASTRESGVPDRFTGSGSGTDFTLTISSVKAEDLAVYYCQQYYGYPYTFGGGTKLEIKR
# notes: Mouse hybridoma monoclonal antibody; also called anti-human PD-L1 antibody F016-568
# B3: F016-21 (antibody, V domains shown)
# VH: B1 VH with S31D, H54Y, N58T, Y60F, S78T, M101L
# VL: B1 VL with L21I, F31Y, Y32F, F40Y, K43R
# notes: Mouse hybridoma monoclonal antibody purified from clone supernatant; also called anti-human PD-L1 antibody F016-21
# B4: F016-870 (antibody, V domains shown)
# VH: EVQLQESGPSLVKPSQTLSLTCSVTGDSITSGYWNWIRKFPGNKLEYMGYISYTGSTYQNPSLKSRISFTRDTSKNQYYLQLSSVTTEDTATYYCARSRAWIRTYFDYWGQGTTLTVSS
# VL: EIVLTQSPALMAASPGEKVTITCSVSSSISSSNLHWYQQKSETSPKPWIYGTSNLASGVPVRFSGSGSGTSYSLTISSMEAEDAATYYCQQWSSYPLTFGAGTKLELKR
# notes: Mouse hybridoma monoclonal antibody; also called anti-human PD-L1 antibody F016-870
# Target: T1, human PD-L2 protein (Acrobiosystem), …
# Assay: ELISA on coated hFc fusion protein
# Method: (§1) Supernatant was discarded; a blocking solution (1×PBS+1% BSA) was added in 200 μL/well; and blocking was performed for 1 h at 37° C. […] Washing was performed for 3 times with the 1×PBS. HRP-labeled goat anti-mouse IgG (sigma A0168-1ML) was added in 100 μL/well; incubation was performed for 30 min at 37° C. in a standing manner; and after washing was performed for 3 times with the 1×PBS, a color reaction was performed.
row,Binder,binding result
1,B1,no binding (tested: 10 µg/mL)

# Target: T2, human ICOSLG protein (Acrobiosystem), …
# Assay: ELISA on coated hFc fusion protein
# Method: as §1
row,Binder,binding result
1,B1,no binding (tested: 10 µg/mL)

# Target: T5, human CD28 protein (Acrobiosystem), hCD28 hFc (human, UniProt P10747 19-152)
# T5 construct: Bought; not shown: human Fc
# Assay: ELISA on coated hCD28 hFc
# Method: as §1
row,Binder,binding result
1,B2,no binding (tested: 10 µg/mL)
2,B3,no binding (tested: 10 µg/mL)
3,B1,no binding (tested: 10 µg/mL)
4,B4,no binding (tested: 10 µg/mL)

# Target: T3, human CD86 protein (Acrobiosystem), …
# Assay: ELISA on coated hCD86 hFc
# Method: as §1
row,Binder,binding result
1,B2,no binding (tested: 10 µg/mL)
2,B3,no binding (tested: 10 µg/mL)
3,B1,no binding (tested: 10 µg/mL)
4,B4,no binding (tested: 10 µg/mL)

# Target: T1, human PD-L2 protein (Acrobiosystem), …
# Assay: ELISA on coated hPD-L2 hFc
# Method: as §1
row,Binder,binding result
1,B2,no binding (tested: 10 µg/mL)
2,B3,no binding (tested: 10 µg/mL)
3,B4,no binding (tested: 10 µg/mL)

# Target: T4, human B7-H3 protein (Acrobiosystem), …
# Assay: ELISA on coated hB7-H3 hFc
# Method: as §1
row,Binder,binding result
1,B2,no binding (tested: 10 µg/mL)
2,B3,no binding (tested: 10 µg/mL)
3,B1,no binding (tested: 10 µg/mL)
4,B4,no binding (tested: 10 µg/mL)

# Target: T2, human ICOSLG protein (Acrobiosystem), …
# Assay: ELISA on coated hICOSLG hFc
# Method: as §1
row,Binder,binding result
1,B2,no binding (tested: 10 µg/mL)
2,B3,no binding (tested: 10 µg/mL)
3,B4,no binding (tested: 10 µg/mL)

# Target: T6, human CTLA-4 protein (Acrobiosystem), hCTLA-4 hFc (human, UniProt P16410 37-162, limits assumed)
# T6 construct: Bought; not shown: human Fc
# Assay: ELISA on coated hCTLA-4 hFc
# Method: as §1
# T6 sequence (P16410 37-162 limits assumed): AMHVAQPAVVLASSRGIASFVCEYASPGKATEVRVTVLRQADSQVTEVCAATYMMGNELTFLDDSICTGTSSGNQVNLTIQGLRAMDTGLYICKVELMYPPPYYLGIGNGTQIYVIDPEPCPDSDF
row,Binder,binding result
1,B2,no binding (tested: 10 µg/mL)
2,B3,no binding (tested: 10 µg/mL)
3,B1,no binding (tested: 10 µg/mL)
4,B4,no binding (tested: 10 µg/mL)

# Target: T7, human PD-L1 full-length protein on CHO-hPD-L1 stable cells (human, UniProt Q9NZQ7 19-290)
# T7 construct: also called membrane protein PD-L1
# Assay: flow cytometry, antibody titration on CHO-hPD-L1 cells, MFI-APC
# T7 sequence (Q9NZQ7 19-290 limits assumed): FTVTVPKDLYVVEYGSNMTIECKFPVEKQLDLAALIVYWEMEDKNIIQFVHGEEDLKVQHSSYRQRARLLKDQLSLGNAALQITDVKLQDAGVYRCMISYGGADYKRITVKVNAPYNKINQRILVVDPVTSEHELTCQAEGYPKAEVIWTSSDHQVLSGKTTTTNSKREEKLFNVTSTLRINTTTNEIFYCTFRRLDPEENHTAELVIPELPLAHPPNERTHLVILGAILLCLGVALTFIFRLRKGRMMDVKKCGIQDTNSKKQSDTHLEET
row,Binder,EC50 [nM]
1,B2,1.25
2,B3,0.502
3,B1,0.561
4,B4,1.1

# Target: macaque PD-L1 on CHO-cynoPD-L1 stable cells (macaque, UniProt Q9NZQ7 19-290 (human entry))
# Assay: flow cytometry, antibody titration on CHO-cynoPD-L1 cells, MFI-APC
# Chain of macaque PD-L1 on CHO-cynoPD-L1 stable cells (Q9NZQ7 other isoform, or with tags, fused parts or gaps limits assumed): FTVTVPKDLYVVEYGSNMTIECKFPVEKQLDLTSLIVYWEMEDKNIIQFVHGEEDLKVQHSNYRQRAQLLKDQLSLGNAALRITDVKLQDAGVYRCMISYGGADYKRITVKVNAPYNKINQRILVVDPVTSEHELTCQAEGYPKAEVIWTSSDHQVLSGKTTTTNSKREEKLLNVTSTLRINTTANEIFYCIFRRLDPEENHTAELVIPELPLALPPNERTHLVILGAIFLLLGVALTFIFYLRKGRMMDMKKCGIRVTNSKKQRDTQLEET
row,Binder,EC50 [nM]
1,B2,1.29
2,B3,0.947
3,B4,0.949

# Target: T8, human PD-L1 on IFNγ-stimulated A375 cells (human, UniProt Q9NZQ7 19-290)
# T8 construct: whole, on cells; PD-L1 of the A375 cells themselves; also called PD-L1 membrane protein
# Assay: flow cytometry, antibody titration on human IFNγ-stimulated A375 cells, MFI-APC
# Method: An experimental process included the following.
# 50 ng/mL of the human IFNγ (R&D) was used to stimulate the expression of human PD-L1 on human melanoma cells A375 (Shanghai cell bank) overnight; on the next day, 0.25% pancreatin (Gibco) was used to digest the A375 cells; after washing was performed once with DPBS, live cell density was adjusted to 2E6/mL; and the mixture was added into the 96-well V base plate in 100 μL/well. […] The mixture was added into the cells in 100 μL/well; and incubation was performed on ice for 30 min in a standing manner, then 250×g was taken to perform centrifugation for 5 min, and supernatant was discarded in a sucking manner. After washing was performed for 2 times with the 1×FCM buffer, iFluor™633GAM fluorescent secondary antibodies (ATT bioquest) diluted by the 1×FCM buffer (dilution ratio being 1:400) were added in 100 μL/well; and incubation was performed on ice for 30 min. After 250×g was taken to perform centrifugation for 5 min, supernatant was discarded in a sucking manner. After washing was performed for 2 times with the 1×FCM buffer, the cells were resuspended by adding the 1×PBS in 100 μL/well; and the flow cytometer (Beckman, CytoFLEX) was used for detection.
# T8 sequence (Q9NZQ7 19-290): as the sequence (Q9NZQ7 19-290 limits assumed) above
row,Binder,EC50 [nM]
1,B2,0.175
2,B3,0.151
3,B1,0.128

# Target: T9, human PD-L1 extracellular domain recombinant protein hPD-L1-his (human, UniProt Q9NZQ7 19-238)
# T9 construct: extracellular domain; Home-made; also called human PD-L1 recombinant protein; not shown: his label
# Assay: BLI (ForteBIO QKe), hPD-L1-his captured on an anti-Penta-HIS sensor, antibody in solution
# Method: An experimental method included the following.
# An equilibration buffer (1×PBS+0.02% Tween20) was used to dilute a home-made human PD-L1 extracellular domain recombinant protein hPD-L1-his carrying a his label, until a final concentration reached 5 μg/mL. […] The whole reaction was undergone at 25° C. and 1000 rpm.
# T9 sequence (Q9NZQ7 19-238): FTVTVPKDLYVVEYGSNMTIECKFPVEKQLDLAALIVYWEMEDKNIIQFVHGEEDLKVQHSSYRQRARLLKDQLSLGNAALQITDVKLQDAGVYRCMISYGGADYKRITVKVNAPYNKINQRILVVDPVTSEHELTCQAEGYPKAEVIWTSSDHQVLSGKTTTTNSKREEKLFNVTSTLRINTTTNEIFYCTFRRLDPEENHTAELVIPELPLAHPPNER
row,Binder,Kd [nM]
1,B2,0.101
2,B3,0.0566
3,B1,0.0098
4,B4,0.0742

# Target: T7, human PD-L1 full-length protein on …
# Assay: flow cytometry blocking assay: antibody titrated on CHO-hPD-L1 cells; blocked ligand recombinant human CD80-hFc
row,Binder,IC50 [nM]
1,B3,4.11
2,B1,4.47
3,B4,4.91

# Target: T7, human PD-L1 full-length protein on …
# Assay: flow cytometry blocking assay (method 1): antibody titrated on CHO-hPD-L1 cells; blocked ligand recombinant human PD-1-hFc
# Method: […] The 1×FCM buffer was used to resuspend the CHO-hPD-L1 cells to the cell density of 2×10E6/mL, and the cells were evenly spread in the 96-well V base plate in 100 μL/well. […] After 250×g was taken to perform centrifugation for 5 min, supernatant was discarded in a sucking manner. After washing was performed for 2 times with the 1×FCM buffer, the cells were resuspended by adding the 1×PBS in 100 μL/well; and the flow cytometer (Beckman, CytoFLEX) was used for detection.
row,Binder,IC50 [nM]
1,B2,6.9
2,B3,5.2
3,B1,4.98
4,B4,5.22

# Target: T10, recombinant human PD-L1 protein carrying a hFc label (human, UniProt Q9NZQ7 19-238)
# T10 construct: Self-produced; also called hPD-L1 hFc; PD-L1-hFc; not shown: human Fc label
# Assay: flow cytometry blocking assay (method 2): antibody titrated; binding of recombinant human PD-L1-hFc to PD-1 on CHO-hPD-1 cells is blocked
# Method: The 1×FCM buffer was used to dilute the self-produced recombinant human PD-L1 protein carrying hFc, until the concentration reached 2 μg/mL. The 1×FCM buffer was used to resuspend the CHO-hPD-1 cells to the cell density of 2×10E6/mL, and the cells were evenly spread in the 96-well V base plate in 100 μL/well. […] After 250×g was taken to perform centrifugation for 5 min, supernatant was discarded in a sucking manner; after washing was performed once with the 1×FCM buffer, APC-labeled goat anti-mouse Fc fluorescent secondary antibodies (Biolegend) diluted by the 1×FCM buffer (dilution ratio being 1:500) were added in 100 μL/well; and incubation was performed on ice for 30 min. After 250×g was taken to perform centrifugation for 5 min, supernatant was discarded in a sucking manner. After washing was performed for 2 times with the 1×FCM buffer, the cells were resuspended by adding the 1×PBS in 100 μL/well; and the flow cytometer (Beckman, CytoFLEX) was used for detection.
# T10 sequence (Q9NZQ7 19-238): as above
row,Binder,IC50 [nM]
1,B2,1.69
2,B3,1.18
3,B1,0.993
4,B4,1.61
